Results on one molecule are retold here after paper PMC12287357 (2025).

The target in this assay is SteE_pS141pY143. The experiment in a line: BLI.

B1: recombinant His6-STAT3^127-715 (domain or fragment)
chain: GQANHPTAAVVTEKQQMLEQHLQDVRKRVQDLEQKMKVVENLQDDFDFNYKTLKSQGDMQDLNGNNQSVTRQKMQQLEQMLTALDQMRRSIVSELAGLLSAMEYVQKTLTDEELADWKRRQQIACIGGPPNICLDRLENWITSLAESQLQTRQQIKKLEELQQKVSYKGDPIVQHRPMLEERIVELFRNLMKSAFVVERQPCMPMHPDRPLVIKTGVQFTTKVRLLVKFPELNYQLKIKVCIDKDSGDVAALRGSRKFNILGTNTKVMNMEESNNGSLSAEFKHLTLREQRCGNGGRANCDASLIVTEELHLITFETEVYHQGLKIDLETHSLPVVVISNICQMPNAWASILWYNMLTNNPKNVNFFTKPPIGTWDQVAEVLSWQFSSTTKRGLSIEQLTTLAEKLLGPGVNYSGCQITWAKFCKENMAGKGFSFWVWLDNIIDLVKKYILALWNEGYIMGFISKERERAILSTKPPGTFLLRFSESSKEGGVTFTWVEKDISGKTQIQSVEPYTKQQLNNMSFAEIIMGYKIMDATNILVSPLVYLYPDIPKEEAFGKYCRPESQEHPEADPGSAAPYLKTKFICVTP
With B1, binding was characterised by a dissociation constant (Kd) of 1.4 µM.
